System: Pin1 R14A (SEQ ID NO:2)

phosphokinase A (PKA)
MALDI-TOF of partial tryptic digest, mass gain of peptide 69-74: the peak corresponding to residues 69-74 of Pin1 gains ~80 Daltons after treatment with PKA | proline isomerase activity (protease-coupled assay, rate constant of isomerization): phosphorylation of Pin1 R14A at position 71 by PKA inhibits the ability of the enzyme to isomerizes substrate
